assay: soluble on expression in E. coli; label from the status in PepcDB or PDB records

Sequence	soluble on expression in E. coli
GSKVEDPKDFPSELLSFLSHAVFSNRTLACFAIYTTKEKAALLYKKIMEKYSVTFISRHNSYNHNILFFLTPHRHRVSAINNYAQKLCTFSFLICKGVNKEYLMYSALTRDPFSVIEESLPGGLKEHDFNPESS	soluble
MGSDKIHHHHHHMSGKGAEYWTKRISEQEMPALSSTVKTLEKLAKDDVSSLAILGRSVMHDNALTSRILKVANSAIYNKGISHVTTVSRAAVVLGFDTIRNICITAKLLSSLLENKGLSEPVYHRLLTLMARAFQAAMLAKMMLKDHDEELQEEVFIAALLYHLGESAFWSMGGETTEQLDARLNQVDEKDANNVVREVLGTSFTQLSMGIAKNWGLGEVLVKSLSNPNERTPEIRSIYLANKISELMASDSKDIAELNHRIKQAADMLDLEVDEFKGRMIQCSHATRKLADTYGAKVLVAFLPDTHQLTLAAEPEAEPIKVREFNVDLQLKKLRELTDCAINKANFNEVITITLSGLLDGIGMDRCAVMLLSPNRKRLQPRVVLGENGDKMKNEFIVELNHDKNVFAESVDLKKPLFIDNPSSEKWRLYTDEELRRHTSVMGFMLAPILVDNKVIGLLYADRHSSERKLAEVDFERFTHFAQLTNLCLSVSVH	not soluble
MSVLDALWEDRDVRFDLSAQQMKTRPGEVLIDCLDSIEDTKGNNGDRGRLLVTNLRILWHSLALSRVNVSVGYNCILNITTRTANSKLRGQTEALYILTKCNSTRFEFIFTNLVPGSPRLFTSVMAVHRAYETSKMYRDFKLRSALIQNKQLRLLPQEHVYDKINGVWNLSSDQGNLGTFFITNVRIVWHANMNDSFNVSIPYLQIRSIKIRDSKFGLALVIESSQQSGGYVLGFKIDPVEKLQESVKEINSLHKVYSASPIFGVDYEMEEKPQPLEALTVEQIQDDVEIDSDGHTDAFVAYFADGNKQQDREPVFSEELGLAIEKLKDGFTLQGLWEVMS	soluble
IKPTYQGHVTVIIGRNDSKSSTNEQYNDVMMSQNLTKTYAQIAESRSVASKTVSKLSNGTTIDQVSKVVSVTPETGTQIIDITANAKSPEEAADLANDFSDSFVAVSKEVYTAGDARIIDRATAPKSPIKPKK	not soluble
QMNYEEVIKKYRGEENFDHAAYDWRLHSGVTPVKDQKNCGSCWAFSSIGSVESQYAIRKNKLITLSEQELVDCSFKNYGCNGGLINNAFEDMIELGGICPDGDYPYVSDAPNLCNIDRCTEKYGIKNYLSVPDNKLKEALRFLGPISISVAVSDDFAFYKEGIFDGECGDQLNHAVMLVGFGMKEIVNPLTKKGEKHYYYIIKNSWGQQWGERGFINIETDESGLMRKCGLGTDAFIPLIE	soluble
MKDQGRSPRKRTGGRRRPNHKKKKHELGKDTVETQVGEQRLKTVDSRGNTQKVRAVKTDVASIADGAETIEATIENVVENPSNPNYARRNIITKGAILETSEGQARVTSRPGQHGQVNAVLVEAAALEHHHHHH	soluble
MGNYLNPDNSKFQRAVNSDIYVDKTGLIKYTNRVINTMQAYVCVSRPRRFGKSMAADMLTAYYSRGCDSRELFAGLEIAKDENFGGYLNKYDTVFLNVQEFLSRSSDVKELIARIKQRVIRELTRQYPDVELFDSTDLAETMQDIYAESKCPFVLIIDEWDCIFREFKNDKEAQEKYLDFLRDLIKDKSYIHLAYMTGILPIKKYGTHSALNMFDEFSMIDPGPLASYVGFTESEVEKLCGEYQMDIDEIRNWYDGYSFEEVPSVYSPKSVISCMRLGRLGNYWNQTETFEALQLYIDMNFEGLRDDILSMLAGEEVPVNTGSFTNDMATFRTEDDVLTLLIHLGYLGYRYATKTVFIPNGEIRAEFVNAVSVSDWGEVSNALKNSADTLQAIWQGREKQVAEGIRQAHFETSHIQYNDENALSYTISLALYAARNFYTVHRELSGGKGFADLVFIPRKRFMDKPALVVELKWDKDVAGAITQIREKEYCRSLEEYHGKLLLVGINYDKKTKEHSCKIEEYRK	not soluble
MGSDKIHHHHHHMAQMTSQTLYQALWNSADILRSKMDASEYKNYLLGLIFYKYLSDRMVVYASDQLEEKTTDLDKAQQIYTDAYNDKDLHDDLISNVSDEFGYHIQPDLTFTALIDKIDHGTFQLEDLSQSFRDIEQSSEFFSGLFEDVDLYSRKLGATPQKQNQVISDVMKQISTLDLVGQNTNDILGDAYEYLIGQFASDSGKNAGEFYTPQSVSRLITQIAMHGKEDVRGFTIYDPTMGSGSLLLNARRYSNERLSINYFGQELNTSTYNLARMNMILHGVPINNQHLHNADTLDQDWPIEEPTNFDAVVMNPPYSAHWQPSKGTENDPRFVSYGLAPKSKADFAFLLHGYYHLKDTGVMCIVLPHGVLFRGGAEGRIRKALLENGAIDTVIGLPANIFFNTSIPTTVTVLKKSRTTRDVLFIDASKEFEKAKNQNHLTDDNIQKILETCINRKDVDKYAHLASFDEIKENDFNLNIPRYVDTTEPEKPVDVVKVVADIKKNDEEIARLSSELAKNFDDLVANNDEAAKQLTALKELFKNE	not soluble
MGHHHHHHSHDNLSVPLMEEDLDGSSGVLFPFYDADTSMLYVVGKGDGNIRYYEVSADKPHLSYLTEYRSYNPQKGIGVMPKRGLDVSSCEIFRFYKLITTKSLIEPISMIVPRRSESYQEDIYPPTAGAQPSLTAQEWLSGMNRDPILVSLRPGSELLRPHPLPAERPIFNSMAPASPRLLNQTEKLAAEDGWRSS	not soluble
MGSDKIHHHHHHVAIALDFGTSNTVVARWNTETQSPELLSLTNLSQRGSQTPPLIPSLLYVEEATMPRLLAGQAVRDQGRDRPQDSRFFRSFKRGIGAEVTGFLPDLDGVCPDFEQVGQWFLDTVIAALEPGDRDGADLVLTVPVDSFENYRLWLSRVAQQWPVDRVRLIDEPTAAALGYGVEQQSPILVFDFGGGTLDLALIELGQTTSKVRSPLGFILKWGDQSFGDNSGQRPQLARVLAKAGRNLGGNDLDDWLTDYFAKQLNTAPTRVLTRLAERIKIQLSTTPEASEVYFDDETLQSLQLQLDRSQFQQILHDRGFFEQLDELLESVLQQGRRQGINPDAIAAVLMVGGSAQIPAVQDWLAGYFPTEKIRCDRPFEAVACGALQLAQGLEVRDFLYHSYGIRYWNHRSQRHDWHPLIPPGQAYPMAEPVELVLGASVAQQPSMELVLGELSQDRGATEIFFDGDRLITRRIGPDRTAAKALNDSETARTIARLDPPGDPGVDRLRLQFWVDRDRFLRVTIEDLLTLETVVENQVVIQL	not soluble
MIQHLSSDTVVIGGGVVGLTIALTVARRHRSVILLDPEEPGSGASYGNAGTIADYAVLPVGTPDVLRQLPSLMFDRNSPLAIRHMALPSLAPWLARFLRQSLPAPARRNAQAIAALLGSATRSWEDLAVEVEGTALLNRRGCLYAYETPQAARAAETDMTFRRTLGVTVELLSAAEFAAMEPSLPPMAGAAYFPKAIFLSDPGRMVALIAEAARKAGVQIVKARATGLERRVDGVIVSGRALQIHGRRAVIAAGAHSRALALCAGDRVPLDTERGYHVEWDMAQPPLTRPTCPTARGFYLCPMAGRLRVAGTVELGGLTARPSPHRIARLVAGARAIFPHLPEPTRSWMGFRPSMPDSLPVIGPSAAGPEILHAYGHGHIGLTLAPITARIVADLLDAKTPELDIAPYLPTRFLEHHHHHH	not soluble
MSLKIDFLTLFPEMFEGVLGSSILQKAQEKDAVQFQVVNFREYSDNKHNTVDDYPYGGGAGMVLKPQPVFDAVEDLTSKAAAAPRIILVCPQGERFTQKKAEQLAKEEHLLFICGHYEGYDERIREHLVTDEISIGDFVLTGGELPAMMIADSVVRLLPGVLGKEASHIEDSFSTGLLEHPHYTRPADYKGLKVPETLLSGNHAKIEEWRNKESIRRTYLRRPDLLKDYPLTEQQRKWISEWEKEEGGSHHHHHH	soluble
MSLATVDKPLPPTDWKVVDNSKTYLKESAMRSFAFDDTLCTLAGKTGQSFIRFWVHENTIVLGTQDTRLPFIREAIEFIEQEGYRAVVRNSGGLAVCLDAGILNLSLVFPGEATFSIDEGYERMVTLVKAIFKEEQIEAGEIAGSYCPGSYDLSIDGKKFAGISQRRIRGGIAVQIYLCVQGSGSARAAFIRSVYNKAVQTSKPAFSYPDIKPEVMASLSELTNVPYSIETIIGRAKTAILESGGQLESAVLSPEEELLYETQLERMIDRHNRCLREGHHHHHH	soluble
MKTRDRILECSLLLFNEQGEPNVSTLEIANELGISPGNLYYHFHGKEPLVMALFERFQAELAPLLDPPEEVRLGAEDYWLFLHLIVERLAHYRFLFQDLSNLTGRLPRLARGIRTWLGALKRTLATLLARLKADRQLRSDAPALGQLVEQITLTLLFSLDYQRVLGSKGEVRTVVYQIMMLVAPHLRSEAQRSAESLAQRYLGPE	not soluble
WGTIPGQNFIYAHLNRVIKKYDLDMIYVSGPGHGGQVMVSNSYLDGTYSEVYPNVSRDLNGLKKLCKQFSFPGGISSHMAPETPGSINEGGELGYSLAHSFGAVFDNPDLITACVVGDGEAETGPLATSWQANKFLNPVTDGAVLPILHLNGYKISNPTVLSRIPKDELEKFFEGNGWKPYFVEGEDPETMHKLMAETLDIVTEEILNIQKNARENNDCSRPKWPMIVLRTPKGWTGPKFVDGVPNEGSFRAHQVPLAVDRYHTENLDQLEEWLKSYKPEELFDENYRLIPELEELTPKGNKRMAANLH	not soluble
MAPRKRSHHGLGFLCCFGGSDIPEINLRDNHPLQFMEFSSPISNAEELNIRFAELVDELDLTDKNREAMFALPPEKKWQIYCSKKKVPSLTPLATSQGSWHGVALAALACSCIHLMFITCQPCSRCWRNNSE	soluble
MGEQPIFTTRAHVFQIDPNTKKNWMPASKQAVTVSYFYDVTRNSYRIISVDGAKVIINSTITPNMTFTKTSQKFGQWADSRANTVFGLGFSSEQQLTKFAEKFQEVKEAAKIAKDKTQEKIETSSNHSQASSVNGTDDEKASHAGPANTHLKSENDKLKIALTQSAANVKKWEIELQTLRESNARLTTALQESAASVEQWKRQFSICRDENDRLRNKIDELEEQCSEINREKEKNTQLKRRIEELEAELREKETELKDLRKQSEIIPQLMSECEYVSEKLEAAERDNQNLEDKVRSLKTDIEESKYRQRHLKVELKSFLEVLDGKIDDLHDFRRGLSKLGTDN	not soluble
MEDLNFEERGSTQIPASLQQHFSAKLGRQNELEKTPSRGGLGLVVNSSKTPGGKSLQSLASACKVPPSTKKNTIPIAFECYEDETDDQIADVATIKKTEKHPCSPIDTANRCETFDSLAADIEDDMLNLEDQDVVLSEDRPYGDVIDPAESEAEALAELGVEEWDSYPPIDPASRIGDDFNYVLRTEDFAEEGDVKLEETRHRTVIADIDEVKMSKAERNELFSMLADDLDSYDLLAEEANLPL	not soluble
MDHRSSSPFLQILPPDEVEKLLHSMKQAKEELETLGNGDESLFLCPQKITHCSTVSWKPNNVLAPALPKQNALNFNGNEQLSHENEAHSEIPSLLTFQEKGEEDTVEVTRDNYNEIDTVEDFRSIEPALENSPKILVDDSMEATQTFIEETNDFQNDTVHSLDGTLEIENRRLCLLGMLVEMKEICKSVKVDLLLNLIPDLAPVAVQACNSASSLSRKEAIYCLVYMVKQVGAEEMEKYLEPLTTAKRTLLQIYIDRSSKDDSK	not soluble
MLLLRITMLEGRSTEQKAELARALSAAAAAAFDVPLAEVRLIIQEVPPTHWTVGGISMAELRQQASTSTQGQ	soluble
SAMAQKEEGHEAAAAEAKKETDLAHVDQVETFVGKEKYYVVKGTDKKGTALYVWVPADKKAKILSKEAKEGISEDKAAKIIKDEGLVSKQKEVHLAREGNVLLWEVTYLDKEGQYSLSYVDFTTGKILKNITP	soluble
MNIKRITTEADLHEALKIRRGVFIEEQHVSEADEFDEFDTLQEQCQHILVYHENQPVGTGRARIVGHTAKLERICILKPYRKYGLGKIIVSGLEEIMKEKGLTSYKLHGQTQAAGFYQKLGYQISSQEFMEDGIPHVLMTKEISRNITLEHHHHHH	not soluble

Reference: the DeepSol protein solubility set
